These results are taken from patent US20010041346A1, “METHOD FOR ASSAYING COMPOUNDS AFFECTING SMOOTH MUSCLE CONTRACTILE STATE” (priority 1999, published 2001).

T1: AL9 (carboxy-terminal 181 amino acids of MBS) (Homo sapiens, UniProt O14974)
T1 construct: expressed in transfected cells; host or cells: Saccharomyces cerevisiae Y190
T1 sequence (O14974 850-1030 limits assumed): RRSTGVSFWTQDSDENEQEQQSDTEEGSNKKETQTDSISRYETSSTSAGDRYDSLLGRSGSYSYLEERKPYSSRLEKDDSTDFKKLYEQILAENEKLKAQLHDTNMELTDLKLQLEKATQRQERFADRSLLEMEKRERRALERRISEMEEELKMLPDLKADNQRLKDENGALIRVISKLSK

B1: cGK1α68-667: cGK1α mutant corresponding to amino acids 68-667 (protein, UniProt Q13976 68-667, looked up, fragment)
chain: PQTYRSFHDLRQAFRKFTKSERSKDLIKEAILDNDFMKNLELSQIQEIVDCMYPVEYGKDSCIIKEGDVGSLVYVMEDGKVEVTKEGVKLCTMGPGKVFGELAILYNCTRTATVKTLVNVKLWAIDRQCFQTIMMRTGLIKHTEYMEFLKSVPTFQSLPEEILSKLADVLEETHYENGEYIIRQGARGDTFFIISKGTVNVTREDSPSEDPVFLRTLGKGDWFGEKALQGEDVRTANVIAAEAVTCLVIDRDSFKHLIGGLDDVSNKAYEDAEAKAKYEAEAAFFANLKLSDFNIIDTLGVGGFGRVELVQLKSEESKTFAMKILKKRHIVDTRQQEHIRSEKQIMQGAHSDFIVRLYRTFKDSKYLYMLMEACLGGELWTILRDRGSFEDSTTRFYTACVVEAFAYLHSKGIIYRDLKPENLILDHRGYAKLVDFGFAKKIGFGKKTWTFCGTPEYVAPEIILNKGHDISADYWSLGILMYELLTGSPPFSGPDPMKTYNIILRGIDMIEFPKKIAKNAANLIKKLCRDNPSERLGNLKNGVKDIQKHKWFEGFNWEGLRKGTLTPPIIPSVASPTDTSNFDSFPEDNDEPPPDDNSGW
modifications: isoform alpha
B2: cGK1α68-446: cGK1α mutant corresponding to amino acids 68-446 (protein, UniProt Q13976 68-446, looked up, fragment)
chain: PQTYRSFHDLRQAFRKFTKSERSKDLIKEAILDNDFMKNLELSQIQEIVDCMYPVEYGKDSCIIKEGDVGSLVYVMEDGKVEVTKEGVKLCTMGPGKVFGELAILYNCTRTATVKTLVNVKLWAIDRQCFQTIMMRTGLIKHTEYMEFLKSVPTFQSLPEEILSKLADVLEETHYENGEYIIRQGARGDTFFIISKGTVNVTREDSPSEDPVFLRTLGKGDWFGEKALQGEDVRTANVIAAEAVTCLVIDRDSFKHLIGGLDDVSNKAYEDAEAKAKYEAEAAFFANLKLSDFNIIDTLGVGGFGRVELVQLKSEESKTFAMKILKKRHIVDTRQQEHIRSEKQIMQGAHSDFIVRLYRTFKDSKYLYMLMEACLGGEL
modifications: isoform alpha

In this assay the target is T1, AL9 (carboxy-terminal 181 amino acids of MBS). As to the kind of experiment: Yeast two-hybrid interaction assay (HIS3 and LacZ reporter activation). The conditions noted are these: yeast strain Y190. Type of assay: binding. The protocol:
Colonies were lifted onto NitroPure nitrocellulose filters (MSI, Westboro, Mass.) which were then submerged in liquid nitrogen for 15 seconds, placed on presoaked Whatman #5 paper (in Z buffer: 60 mM Na2HPO4.7H2O, 40 mM NaH2PO4.H2O, 10 mM KCl, 1 mM MgSO4.7H2O), 50 mM β-mercaptoethanol, pH 7.0, and incubated at 37° for up to 12 hours.
Polypeptides interacting with cGK-PC97 were detected by their ability to activate transcription of histidine (HIS3) and β-galactosidase (LacZ) reporter genes via reconstitution of the Gal4 transcription factor. MaV103 colonies capable of growing on media lacking histidine were assayed for β-galactosidase activity using the colony-lift filter assay, according to standard techniques and as described herein. PC86 plasmids (containing the activated T cell library) from His3+, LacZ+ colonies were isolated and the library cDNA insert sequenced. 2.5×10^6 clones were screened from the T cell library.
To verify the interaction of AL9 with cGK1α, individual plasmids were introduced into S. cerevisiae strain Y190 (Clontech, Palo Alto, Calif.) by the lithium acetate method and assayed for reporter gene activation, as above. Y190 was transformed with cGK1α/GalDB or GalDB alone, in combination with AL9/GalAD or GalAD alone, and plated on Sc-His (synthetic complete medium, minus histidine) and YPD (yeast extract, peptone, dextrose) plates. β-galactosidase activity assays, on colonies from the YPD plate, were also performed. […] Thus, cotransformation of AL9 and cGK1α into S. cerevisiae confirmed the interaction of full-length cGK1α with the carboxy-terminal 181 amino acids of MBS.
Yeast strain Y190 was transformed with AL9/GalAD in combination with the cGK1α/GalDB truncation mutants and plated on YPD and Sc-His plates. Colony lift β-Galactosidase assays for the yeast colonies growing on the YPD plate were also performed. […] Thus, the C-terminus of MBS (AL9) interacts with the N-terminus of cGK1α (cGK1α1-59).
Site-directed mutagenesis was employed to replace selected leucine or isoleucine residues in the N-terminus of cGKIα. cGK1α1-59 was cloned into vector pcDNA3.1 (Invitrogen, Carlsbad, Calif.) using the method of Kunkel et al. (Kunkel et al., Methods in Enzymology, 154: 367-382, 1987). Three mutants of the leucine/isoleucine zipper of cGKIα were prepared: Leu12 and Ile19 to Ala (cGKLLZ1,2A); Leu26 to Pro (cGKLZ3P); Ile33 and Leu40 to Ala (cGKLZ4,5A). All mutants were confirmed by DNA sequencing, then subcloned into vector PC97 for expression in yeast. cGKLz1,2A, GKLZ3P, and GKLZ4,5A were each cotransformed with AL9 in yeast strain Y190 , and reporter gene activation assayed as described herein.
“cGK1α1-59: cGK1α truncation mutant containing amino acids 1-59, leucine/isoleucine zipper domain (MSELEEDFAKILMLKEERIKELEKRLSEKEEEIQELKRKLHKCQSVLPVPSTHIGPRTT; isoform alpha; UniProt Q13976 1-59, looked up, fragment)”: the “interaction with AL9/MBS in yeast two-hybrid (HIS and β-Gal reporter activation)” value was “interacted with AL9”.
The same measure for “cGKLZ1,2A: cGK1α1-59 mutant, Leu12 and Ile19 to Ala (MSELEEDFAKIAMLKEERAKELEKRLSEKEEEIQELKRKLHKCQSVLPVPSTHIGPRTT; isoform alpha; UniProt Q13976 1-59, looked up, variant L12A I19A)”: “failed to interact with MBS”; for “cGKLZ3P: cGK1α1-59 mutant, Leu26 to Pro (MSELEEDFAKILMLKEERIKELEKRPSEKEEEIQELKRKLHKCQSVLPVPSTHIGPRTT; isoform alpha; UniProt Q13976 1-59, looked up, variant L26P)”: “failed to interact with MBS”; for “cGKLZ4,5A: cGK1α1-59 mutant, Ile33 and Leu40 to Ala (MSELEEDFAKILMLKEERIKELEKRLSEKEEEAQELKRKAHKCQSVLPVPSTHIGPRTT; isoform alpha residues 1-59; UniProt Q13976 1-59, looked up, variant I33A L40A)”: “weak association with MBS”.
For B1, the “interaction with AL9/MBS in yeast two-hybrid (HIS and β-Gal reporter activation)” value was “failed to associate with AL9”.
In the case of B2 it was “failed to associate with AL9”.
